# B1: Twister Ribozyme (parent)
# chain: AACACUGCCAAUGCCGGUCCCAAGCCCGGAUAAAAGUGGAGGGGGCGG
# Variants of: B1
# Assay: self-cleavage, relative activity (ratio to wild type); higher = more cleavage; co-transcriptional
row,Variant,self-cleavage
1,AACACUGCCAAUGCCGGUCCCAAGCCCGGAUAAAAGUGGCGGCGGCGG,0.157
2,AACACUGCCAAUGCCGGUCCCAAGCCCGGAUAAAAGUGGACGGGGUGG,0.282
3,AACACUGCCAAUGCCGGUCCCAAGCCCGGAUAAAAGUGGAAGGGGCGC,0.535
4,AACACUGCCAAUGCCGGUCCCAAGCCCGGAUAAAAGUGGAAGGGGCGA,0.332
5,AACACUGCCAAUGCCGGUCCCAAGCCCGGAUAAAAGUGGAGAGGGGGG,0.232
6,AACACUGCCAAUGCCGGUCCCAAGCCCGGAUAAAAGUGGGGGGGGUGG,0.155
7,AACACUGCCAAUGCCGGUCCCAAGCCCGGAUAAAAGUGGGGGGGGAGG,0.164
8,AACACUGCCAAUGCCGGUCCCAAGCCCGGAUAAAAGUGCUGGGGGCGG,0.165
9,AACACUGCCAAUGCCGGUCCCAAGCCCGGAUAAAAGUGGAGUAGGCGG,0.129
10,AACACUGCCAAUGCCGGUCCCAAGCCCGGAUAAAAGUGGAUGGGGCCG,0.209
11,AACACUGCCAAUGCCGGUCCCAAGCCCGGAUAAAAGUGGAUGGGGCUG,0.3
12,AACACUGCCAAUGCCGGUCCCAAGCCCGGAUAAAAGUGGCGCGGGCGG,0.164
13,AACACUGCCAAUGCCGGUCCCAAGCCCGGAUAAAAGUGGAGCGGGCGA,0.516
14,AACACUGCCAAUGCCGGUCCCAAGCCCGGAUAAAAGUGGAGCGGGCGC,0.606
15,AACACUGCCAAUGCCGGUCCCAAGCCCGGAUAAAAGUGCACGGGGCGG,0.112
16,AACACUGCCAAUGCCGGUCCCAAGCCCGGAUAAAAGUGCAAGGGGCGG,0.0895
17,AACACUGCCAAUGCCGGUCCCAAGCCCGGAUAAAAGUGGGGGGGGCGG,0.153
18,AACACUGCCAAUGCCGGUCCCAAGCCCGGAUAAAAGUGGCGGGGGCGG,0.262
19,AACACUGCCAAUGCCGGUCCCAAGCCCGGAUAAAAGUGGUGGGGGCGG,0.158
20,AACACUGCCAAUGCCGGUCCCAAGCCCGGAUAAAAGUGCAGGGCGCGG,0.167
21,AACACUGCCAAUGCCGGUCCCAAGCCCGGAUAAAAGUGCAGGGAGCGG,0.137
22,AACACUGCCAAUGCCGGUCCCAAGCCCGGAUAAAAGUGGACGGGGCCG,0.162

row,Variant,self-cleavage
1,AACACUGCCAAUGCCGGUCCCAAGCCCGGAUAAAAGUGGACGGGGCAG,0.235
2,AACACUGCCAAUGCCGGUCCCAAGCCCGGAUAAAAGUGGAGCAGGCGG,0.139
3,AACACUGCCAAUGCCGGUCCCAAGCCCGGAUAAAAGUGGCUGGGGCGG,0.157
4,AACACUGCCAAUGCCGGUCCCAAGCCCGGAUAAAAGUGGCAGGGGCGG,0.115
5,AACACUGCCAAUGCCGGUCCCAAGCCCGGAUAAAAGUGGCGGGGGCCG,0.193
6,AACACUGCCAAUGCCGGUCCCAAGCCCGGAUAAAAGUGGCGGGGGCAG,0.19
7,AACACUGCCAAUGCCGGUCCCAAGCCCGGAUAAAAGUGGAGCGGGUGG,0.463
8,AACACUGCCAAUGCCGGUCCCAAGCCCGGAUAAAAGUGGAGCGGGGGG,0.465
9,AACACUGCCAAUGCCGGUCCCAAGCCCGGAUAAAAGUGGGGGGGCCGG,0.148
10,AACACUGCCAAUGCCGGUCCCAAGCCCGGAUAAAAGUGGGGGGGUCGG,0.147
11,AACACUGCCAAUGCCGGUCCCAAGCCCGGAUAAAAGUGGAUGGGGAGG,0.512
12,AACACUGCCAAUGCCGGUCCCAAGCCCGGAUAAAAGUGGAGAGGGCAG,0.282
13,AACACUGCCAAUGCCGGUCCCAAGCCCGGAUAAAAGUGCAGGGGACGG,0.12
14,AACACUGCCAAUGCCGGUCCCAAGCCCGGAUAAAAGUGCAGGGGUCGG,0.158
15,AACACUGCCAAUGCCGGUCCCAAGCCCGGAUAAAAGUGCAGGGGCCGG,0.105
16,AACACUGCCAAUGCCGGUCCCAAGCCCGGAUAAAAGUGGGGGGGGCUG,0.143
17,AACACUGCCAAUGCCGGUCCCAAGCCCGGAUAAAAGUGGAUGAGGCGG,0.163
18,AACACUGCCAAUGCCGGUCCCAAGCCCGGAUAAAAGUGGAUGCGGCGG,0.135
19,AACACUGCCAAUGCCGGUCCCAAGCCCGGAUAAAAGUGGACGUGGCGG,0.153
20,AACACUGCCAAUGCCGGUCCCAAGCCCGGAUAAAAGUGGACGAGGCGG,0.141
21,AACACUGCCAAUGCCGGUCCCAAGCCCGGAUAAAAGUGGACGCGGCGG,0.148
22,AACACUGCCAAUGCCGGUCCCAAGCCCGGAUAAAAGUGGUGGGAGCGG,0.155

row,Variant,self-cleavage
1,AACACUGCCAAUGCCGGUCCCAAGCCCGGAUAAAAGUGGUGGGCGCGG,0.178
2,AACACUGCCAAUGCCGGUCCCAAGCCCGGAUAAAAGUGGAUGGAGCGG,0.403
3,AACACUGCCAAUGCCGGUCCCAAGCCCGGAUAAAAGUGGAUGGUGCGG,0.193
4,AACACUGCCAAUGCCGGUCCCAAGCCCGGAUAAAAGUGGAGAGGGCGC,0.624
5,AACACUGCCAAUGCCGGUCCCAAGCCCGGAUAAAAGUGGAGCGGUCGG,0.164
6,AACACUGCCAAUGCCGGUCCCAAGCCCGGAUAAAAGUGGAGCGUGCGG,0.162
7,AACACUGCCAAUGCCGGUCCCAAGCCCGGAUAAAAGUGGGGUGGGCGG,0.172
8,AACACUGCCAAUGCCGGUCCCAAGCCCGGAUAAAAGUGCAGGGGGCGA,0.138
9,AACACUGCCAAUGCCGGUCCCAAGCCCGGAUAAAAGUGGAGAGGACGG,0.422
10,AACACUGCCAAUGCCGGUCCCAAGCCCGGAUAAAAGUGGGGGGCGCGG,0.195
11,AACACUGCCAAUGCCGGUCCCAAGCCCGGAUAAAAGUGGGGGGUGCGG,0.156
12,AACACUGCCAAUGCCGGUCCCAAGCCCGGAUAAAAGUGGAUGGGGCGA,0.401
13,AACACUGCCAAUGCCGGUCCCAAGCCCGGAUAAAAGUGGUAGGGGCGG,0.142
14,AACACUGCCAAUGCCGGUCCCAAGCCCGGAUAAAAGUGGAAGGGGCCG,0.2
15,AACACUGCCAAUGCCGGUCCCAAGCCCGGAUAAAAGUGGAAGGGGCAG,0.278
16,AACACUGCCAAUGCCGGUCCCAAGCCCGGAUAAAAGUGUAGGGUGCGG,0.164
17,AACACUGCCAAUGCCGGUCCCAAGCCCGGAUAAAAGUGCAGGGGGCAG,0.152
18,AACACUGCCAAUGCCGGUCCCAAGCCCGGAUAAAAGUGUAGGGGCCGG,0.183
19,AACACUGCCAAUGCCGGUCCCAAGCCCGGAUAAAAGUGGAAGGGACGG,0.588
20,AACACUGCCAAUGCCGGUCCCAAGCCCGGAUAAAAGUGGAAGGGUCGG,0.196
21,AACACUGCCAAUGCCGGUCCCAAGCCCGGAUAAAAGUGGAAGGGCCGG,0.151
22,AACACUGCCAAUGCCGGUCCCAAGCCCGGAUAAAAGUGGUGGGGGCCG,0.142

row,Variant,self-cleavage
1,AACACUGCCAAUGCCGGUCCCAAGCCCGGAUAAAAGUGGUGGGGGCUG,0.12
2,AACACUGCCAAUGCCGGUCCCAAGCCCGGAUAAAAGUGUAGGGGGCGU,0.196
3,AACACUGCCAAUGCCGGUCCCAAGCCCGGAUAAAAGUGGAGUGAGCGG,0.524
4,AACACUGCCAAUGCCGGUCCCAAGCCCGGAUAAAAGUGGAUCGGGCGG,0.164
5,AACACUGCCAAUGCCGGUCCCAAGCCCGGAUAAAAGUGGAUUGGGCGG,0.125
6,AACACUGCCAAUGCCGGUCCCAAGCCCGGAUAAAAGUGUAGGUGGCGG,0.143
7,AACACUGCCAAUGCCGGUCCCAAGCCCGGAUAAAAGUGGCGGGUGCGG,0.296
8,AACACUGCCAAUGCCGGUCCCAAGCCCGGAUAAAAGUGGCGGGAGCGG,0.298
9,AACACUGCCAAUGCCGGUCCCAAGCCCGGAUAAAAGUGGAGUGGGAGG,0.162
10,AACACUGCCAAUGCCGGUCCCAAGCCCGGAUAAAAGUGGAUGGGCCGG,0.177
11,AACACUGCCAAUGCCGGUCCCAAGCCCGGAUAAAAGUGGAUGGGACGG,0.596
12,AACACUGCCAAUGCCGGUCCCAAGCCCGGAUAAAAGUGGUGGAGGCGG,0.132
13,AACACUGCCAAUGCCGGUCCCAAGCCCGGAUAAAAGUGGUGGCGGCGG,0.114
14,AACACUGCCAAUGCCGGUCCCAAGCCCGGAUAAAAGUGCAGGAGGCGG,0.103
15,AACACUGCCAAUGCCGGUCCCAAGCCCGGAUAAAAGUGUAUGGGGCGG,0.149
16,AACACUGCCAAUGCCGGUCCCAAGCCCGGAUAAAAGUGUACGGGGCGG,0.121
17,AACACUGCCAAUGCCGGUCCCAAGCCCGGAUAAAAGUGUAAGGGGCGG,0.0926
18,AACACUGCCAAUGCCGGUCCCAAGCCCGGAUAAAAGUGGUGGGGGAGG,0.146
19,AACACUGCCAAUGCCGGUCCCAAGCCCGGAUAAAAGUGGAGAUGGCGG,0.134
20,AACACUGCCAAUGCCGGUCCCAAGCCCGGAUAAAAGUGGAGAAGGCGG,0.131
21,AACACUGCCAAUGCCGGUCCCAAGCCCGGAUAAAAGUGGCGGGGGGGG,0.218
22,AACACUGCCAAUGCCGGUCCCAAGCCCGGAUAAAAGUGGCGGGGGUGG,0.236

row,Variant,self-cleavage
1,AACACUGCCAAUGCCGGUCCCAAGCCCGGAUAAAAGUGGACGGGGCGA,0.234
2,AACACUGCCAAUGCCGGUCCCAAGCCCGGAUAAAAGUGGACGGGGCGU,0.288
3,AACACUGCCAAUGCCGGUCCCAAGCCCGGAUAAAAGUGGACGGGGCGC,0.332
4,AACACUGCCAAUGCCGGUCCCAAGCCCGGAUAAAAGUGGACGGCGCGG,0.187
5,AACACUGCCAAUGCCGGUCCCAAGCCCGGAUAAAAGUGGACGGAGCGG,0.211
6,AACACUGCCAAUGCCGGUCCCAAGCCCGGAUAAAAGUGGACGGGACGG,0.334
7,AACACUGCCAAUGCCGGUCCCAAGCCCGGAUAAAAGUGGACGGGCCGG,0.253
8,AACACUGCCAAUGCCGGUCCCAAGCCCGGAUAAAAGUGGGGGAGGCGG,0.147
9,AACACUGCCAAUGCCGGUCCCAAGCCCGGAUAAAAGUGUAGGGGGCCG,0.16
10,AACACUGCCAAUGCCGGUCCCAAGCCCGGAUAAAAGUGUAGGGGGCAG,0.14
11,AACACUGCCAAUGCCGGUCCCAAGCCCGGAUAAAAGUGGUGUGGGCGG,0.15
12,AACACUGCCAAUGCCGGUCCCAAGCCCGGAUAAAAGUGUAGUGGGCGG,0.149
13,AACACUGCCAAUGCCGGUCCCAAGCCCGGAUAAAAGUGUAGAGGGCGG,0.104
14,AACACUGCCAAUGCCGGUCCCAAGCCCGGAUAAAAGUGGCGGGGGCGC,0.343
15,AACACUGCCAAUGCCGGUCCCAAGCCCGGAUAAAAGUGGAAGAGGCGG,0.171
16,AACACUGCCAAUGCCGGUCCCAAGCCCGGAUAAAAGUGCAGGGGGUGG,0.14
17,AACACUGCCAAUGCCGGUCCCAAGCCCGGAUAAAAGUGGGGGGGGCGA,0.193
18,AACACUGCCAAUGCCGGUCCCAAGCCCGGAUAAAAGUGGGGGGGGCGC,0.14
19,AACACUGCCAAUGCCGGUCCCAAGCCCGGAUAAAAGUGGGCGGGGCGG,0.133
20,AACACUGCCAAUGCCGGUCCCAAGCCCGGAUAAAAGUGGGAGGGGCGG,0.141

# Reference: the RNAGym collection of RNA variant scans (doi:10.7554/elife.80360)
